{"source": "paper PMC8025907", "key": {"[1]": {"molecular_target": "T1, His6-BfmR (Pseudomonas aeruginosa MPAO1) (UniProt Q9HWS7)", "T1 sequence": "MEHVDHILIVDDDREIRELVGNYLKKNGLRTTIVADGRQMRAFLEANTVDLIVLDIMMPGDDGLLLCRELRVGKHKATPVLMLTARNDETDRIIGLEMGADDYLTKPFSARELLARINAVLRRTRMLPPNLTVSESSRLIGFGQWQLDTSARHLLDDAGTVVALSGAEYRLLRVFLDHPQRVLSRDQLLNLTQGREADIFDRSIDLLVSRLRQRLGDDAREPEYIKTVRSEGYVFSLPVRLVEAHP", "test": "DNase I footprinting", "conditions": "10 mM Tris-Cl pH 8.0, 1 mM DTT, 10% glycerol, 5 mM MgCl2, 10 mM KCl, 50 mM acetyl phosphate; EMSA 30 min at 37 C; footprinting 30 min at room temperature"}, "[2]": {"molecular_target": "T1, His6-BfmR (Pseudomonas aeruginosa MPAO1)", "test": "EMSA", "conditions": "10 mM Tris-Cl pH 8.0, 1 mM DTT, 10% glycerol, 5 mM MgCl2, 10 mM KCl, 50 mM acetyl phosphate; EMSA 30 min at 37 C; footprinting 30 min at room temperature"}}, "data": [{"sequence": "GAATATCCGAAAGCCAGACGGTTATCGGCAGAAACTCTTGGTTTTCATTGCAGTCATGCAATCTTCGCAAGGTTGCCGCAATATATGAAACAAACTGTTACATCTGTCGCCCGGACCTGATGCCTCTAGGCCTGCGCCCTTATCCGACGGCCTCATCCAGGCGCTATCCGGCTGCCTGTCACAAAAGCTTTCGCGCTTTGCAGTCTCGCTGTCACAACCCATCCAGATGATCCCCCTCCAGCAGCGCCGGCCGGCGACAGAACCGGCCGTTTCCGCGCTGCTCAAGA (double strand) [oprP promoter]", "values": [{"measurement": "binding", "setting": "[1]", "value": "binds"}, {"measurement": "binding", "setting": "[2]", "value": "binds"}]}]}
